# PMC12416549 (2024)
# T1: TNFR1 (Homo sapiens, UniProt P19438)
# T1 chain: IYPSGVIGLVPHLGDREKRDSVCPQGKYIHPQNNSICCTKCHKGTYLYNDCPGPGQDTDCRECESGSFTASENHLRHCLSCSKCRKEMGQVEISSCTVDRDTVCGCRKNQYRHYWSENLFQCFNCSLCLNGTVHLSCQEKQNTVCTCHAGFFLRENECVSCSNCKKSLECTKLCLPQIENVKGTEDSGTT
# Target: T1, TNFR1
# Assay: yeast display SC50
row,apparent Kd (screen),Binder
1,0.539 nM,A106R (designed binder) MTLQELLREEALRRAEAEAFRYALELLAEKFPEQKEYLLDLAEEIESQIRSLSGVDVEDVRKFLDKEWAWVKELLAEHPAELAEVEAARAARLAELRAEVEAKVAR
2,0.653 nM,R8Q (designed binder) MTLQELLQEEALRRAEAEAFRYALELLAEKFPEQKEYLLDLAEEIESQIRSLSGVDVEDVRKFLDKEWAWVKELLAEHPAELAEVEAARAARLAELRAEVEAKVAA
3,0.49 nM,A87K (designed binder) MTLQELLREEALRRAEAEAFRYALELLAEKFPEQKEYLLDLAEEIESQIRSLSGVDVEDVRKFLDKEWAWVKELLAEHPAELAEVEKARAARLAELRAEVEAKVAA
4,0.593 nM,A94Y (designed binder) MTLQELLREEALRRAEAEAFRYALELLAEKFPEQKEYLLDLAEEIESQIRSLSGVDVEDVRKFLDKEWAWVKELLAEHPAELAEVEAARAARLYELRAEVEAKVAA
5,0.718 nM,A105D (designed binder) MTLQELLREEALRRAEAEAFRYALELLAEKFPEQKEYLLDLAEEIESQIRSLSGVDVEDVRKFLDKEWAWVKELLAEHPAELAEVEAARAARLAELRAEVEAKVDA
6,0.593 nM,M1R (designed binder) RTLQELLREEALRRAEAEAFRYALELLAEKFPEQKEYLLDLAEEIESQIRSLSGVDVEDVRKFLDKEWAWVKELLAEHPAELAEVEAARAARLAELRAEVEAKVAA
7,0.653 nM,A87S (designed binder) MTLQELLREEALRRAEAEAFRYALELLAEKFPEQKEYLLDLAEEIESQIRSLSGVDVEDVRKFLDKEWAWVKELLAEHPAELAEVESARAARLAELRAEVEAKVAA
8,0.653 nM,V55L (designed binder) MTLQELLREEALRRAEAEAFRYALELLAEKFPEQKEYLLDLAEEIESQIRSLSGLDVEDVRKFLDKEWAWVKELLAEHPAELAEVEAARAARLAELRAEVEAKVAA
9,1.4 nM,G54A (designed binder) MTLQELLREEALRRAEAEAFRYALELLAEKFPEQKEYLLDLAEEIESQIRSLSAVDVEDVRKFLDKEWAWVKELLAEHPAELAEVEAARAARLAELRAEVEAKVAA
10,0.539 nM,A42S (designed binder) MTLQELLREEALRRAEAEAFRYALELLAEKFPEQKEYLLDLSEEIESQIRSLSGVDVEDVRKFLDKEWAWVKELLAEHPAELAEVEAARAARLAELRAEVEAKVAA
11,0.446 nM,E5T (designed binder) MTLQTLLREEALRRAEAEAFRYALELLAEKFPEQKEYLLDLAEEIESQIRSLSGVDVEDVRKFLDKEWAWVKELLAEHPAELAEVEAARAARLAELRAEVEAKVAA
12,0.718 nM,A94C (designed binder) MTLQELLREEALRRAEAEAFRYALELLAEKFPEQKEYLLDLAEEIESQIRSLSGVDVEDVRKFLDKEWAWVKELLAEHPAELAEVEAARAARLCELRAEVEAKVAA
13,10.4 nM,R8P (designed binder) MTLQELLPEEALRRAEAEAFRYALELLAEKFPEQKEYLLDLAEEIESQIRSLSGVDVEDVRKFLDKEWAWVKELLAEHPAELAEVEAARAARLAELRAEVEAKVAA
14,1.27 nM,E36N (designed binder) MTLQELLREEALRRAEAEAFRYALELLAEKFPEQKNYLLDLAEEIESQIRSLSGVDVEDVRKFLDKEWAWVKELLAEHPAELAEVEAARAARLAELRAEVEAKVAA
15,0.718 nM,E36G (designed binder) MTLQELLREEALRRAEAEAFRYALELLAEKFPEQKGYLLDLAEEIESQIRSLSGVDVEDVRKFLDKEWAWVKELLAEHPAELAEVEAARAARLAELRAEVEAKVAA
16,0.869 nM,K103F (designed binder) MTLQELLREEALRRAEAEAFRYALELLAEKFPEQKEYLLDLAEEIESQIRSLSGVDVEDVRKFLDKEWAWVKELLAEHPAELAEVEAARAARLAELRAEVEAFVAA
17,0.49 nM,E18H (designed binder) MTLQELLREEALRRAEAHAFRYALELLAEKFPEQKEYLLDLAEEIESQIRSLSGVDVEDVRKFLDKEWAWVKELLAEHPAELAEVEAARAARLAELRAEVEAKVAA
18,0.956 nM,K66T (designed binder) MTLQELLREEALRRAEAEAFRYALELLAEKFPEQKEYLLDLAEEIESQIRSLSGVDVEDVRKFLDTEWAWVKELLAEHPAELAEVEAARAARLAELRAEVEAKVAA

row,apparent Kd (screen),Binder
1,9.41 nM,F63R (designed binder) MTLQELLREEALRRAEAEAFRYALELLAEKFPEQKEYLLDLAEEIESQIRSLSGVDVEDVRKRLDKEWAWVKELLAEHPAELAEVEAARAARLAELRAEVEAKVAA
2,0.653 nM,Y22M (designed binder) MTLQELLREEALRRAEAEAFRMALELLAEKFPEQKEYLLDLAEEIESQIRSLSGVDVEDVRKFLDKEWAWVKELLAEHPAELAEVEAARAARLAELRAEVEAKVAA
3,0.49 nM,E36P (designed binder) MTLQELLREEALRRAEAEAFRYALELLAEKFPEQKPYLLDLAEEIESQIRSLSGVDVEDVRKFLDKEWAWVKELLAEHPAELAEVEAARAARLAELRAEVEAKVAA
4,2.73 nM,L3M (designed binder) MTMQELLREEALRRAEAEAFRYALELLAEKFPEQKEYLLDLAEEIESQIRSLSGVDVEDVRKFLDKEWAWVKELLAEHPAELAEVEAARAARLAELRAEVEAKVAA
5,12.5 nM,A28N (designed binder) MTLQELLREEALRRAEAEAFRYALELLNEKFPEQKEYLLDLAEEIESQIRSLSGVDVEDVRKFLDKEWAWVKELLAEHPAELAEVEAARAARLAELRAEVEAKVAA
6,0.653 nM,E101K (designed binder) MTLQELLREEALRRAEAEAFRYALELLAEKFPEQKEYLLDLAEEIESQIRSLSGVDVEDVRKFLDKEWAWVKELLAEHPAELAEVEAARAARLAELRAEVKAKVAA
7,0.653 nM,A105M (designed binder) MTLQELLREEALRRAEAEAFRYALELLAEKFPEQKEYLLDLAEEIESQIRSLSGVDVEDVRKFLDKEWAWVKELLAEHPAELAEVEAARAARLAELRAEVEAKVMA
8,0.539 nM,T2F (designed binder) MFLQELLREEALRRAEAEAFRYALELLAEKFPEQKEYLLDLAEEIESQIRSLSGVDVEDVRKFLDKEWAWVKELLAEHPAELAEVEAARAARLAELRAEVEAKVAA
9,12.5 nM,G54P (designed binder) MTLQELLREEALRRAEAEAFRYALELLAEKFPEQKEYLLDLAEEIESQIRSLSPVDVEDVRKFLDKEWAWVKELLAEHPAELAEVEAARAARLAELRAEVEAKVAA
10,0.539 nM,A83K (designed binder) MTLQELLREEALRRAEAEAFRYALELLAEKFPEQKEYLLDLAEEIESQIRSLSGVDVEDVRKFLDKEWAWVKELLAEHPAELKEVEAARAARLAELRAEVEAKVAA
11,22.2 nM,L6N (designed binder) MTLQENLREEALRRAEAEAFRYALELLAEKFPEQKEYLLDLAEEIESQIRSLSGVDVEDVRKFLDKEWAWVKELLAEHPAELAEVEAARAARLAELRAEVEAKVAA
12,0.718 nM,E9L (designed binder) MTLQELLRLEALRRAEAEAFRYALELLAEKFPEQKEYLLDLAEEIESQIRSLSGVDVEDVRKFLDKEWAWVKELLAEHPAELAEVEAARAARLAELRAEVEAKVAA
13,2.25 nM,S53I (designed binder) MTLQELLREEALRRAEAEAFRYALELLAEKFPEQKEYLLDLAEEIESQIRSLIGVDVEDVRKFLDKEWAWVKELLAEHPAELAEVEAARAARLAELRAEVEAKVAA
14,0.539 nM,E81W (designed binder) MTLQELLREEALRRAEAEAFRYALELLAEKFPEQKEYLLDLAEEIESQIRSLSGVDVEDVRKFLDKEWAWVKELLAEHPAWLAEVEAARAARLAELRAEVEAKVAA
15,0.446 nM,D59T (designed binder) MTLQELLREEALRRAEAEAFRYALELLAEKFPEQKEYLLDLAEEIESQIRSLSGVDVETVRKFLDKEWAWVKELLAEHPAELAEVEAARAARLAELRAEVEAKVAA
16,9.41 nM,E16P (designed binder) MTLQELLREEALRRAPAEAFRYALELLAEKFPEQKEYLLDLAEEIESQIRSLSGVDVEDVRKFLDKEWAWVKELLAEHPAELAEVEAARAARLAELRAEVEAKVAA
17,22.2 nM,L38P (designed binder) MTLQELLREEALRRAEAEAFRYALELLAEKFPEQKEYPLDLAEEIESQIRSLSGVDVEDVRKFLDKEWAWVKELLAEHPAELAEVEAARAARLAELRAEVEAKVAA
